In patent publication US20080044360A1 (COLLAGEN MEDICAL, published 2008):
Bridge positions count the residues as written; N and C are the ends. Square brackets hold non-standard residues; d marks the D form. Ends that are not written are not given here.

B1: SEQ ID NO 164 (peptide)
peptide: [dQ]WTCSGDEYTWHCNYE
modifications: disulfide 4-13 (inferred); not fully specified (N-terminus, C-terminus); printed as qWTCSGDEYTWHCNYE
notes: cyclic, disulfide
B2: SEQ ID NO 170 (peptide)
peptide: QWTCSGD[dE]YTWHCNYE
modifications: disulfide 4-13 (inferred); not fully specified (N-terminus); printed as QWTCSGDeYTWHCNYE
notes: cyclic, disulfide
B3: SEQ ID NO 172 (peptide)
peptide: QWTCSGDEY[dT]WHCNYE
modifications: disulfide 4-13 (inferred); not fully specified (N-terminus); printed as QWTCSGDEYtWHCNYE
notes: cyclic, disulfide
B4: SEQ ID NO 177 (peptide)
peptide: QWTCSGDEYTWHCN[dY]E
modifications: disulfide 4-13 (inferred); not fully specified (N-terminus); printed as QWTCSGDEYTWHCNyE
notes: cyclic, disulfide
B5: SEQ ID NO 178 (peptide)
peptide: QWTCSGDEYTWHCNY[dE]
modifications: disulfide 4-13 (inferred); not fully specified (N-terminus); printed as QWTCSGDEYTWHCNYe
notes: cyclic, disulfide
B6: SEQ ID NO 153 (peptide)
peptide: Y[dH]ACYQAGCWIW
modifications: disulfide 4-9 (inferred); not fully specified (C-terminus); printed as YhACYQAGCWIW
notes: cyclic, disulfide
B7: SEQ ID NO 154 (peptide)
peptide: YH[dA]CYQAGCWIW
modifications: disulfide 4-9 (inferred); not fully specified (C-terminus); printed as YHaCYQAGCWIW
notes: cyclic, disulfide
B8: SEQ ID NO 155 (peptide)
peptide: YHA[dC]YQAGCWIW
modifications: disulfide 4-9 (inferred); not fully specified (C-terminus); printed as YHAcYQAGCWIW
notes: cyclic, disulfide
B9: SEQ ID NO 156 (peptide)
peptide: YHAC[dY]QAGCWIW
modifications: disulfide 4-9 (inferred); not fully specified (C-terminus); printed as YHACyQAGCWIW
notes: cyclic, disulfide; also called YHACyQAGCWIW
B10: SEQ ID NO 157 (peptide)
peptide: YHACY[dQ]AGCWIW
modifications: disulfide 4-9 (inferred); not fully specified (C-terminus); printed as YHACYqAGCWIW
notes: cyclic, disulfide; also called YHACYqAGCWIW
B11: SEQ ID NO 158 (peptide)
peptide: YHACYQ[dA]GCWIW
modifications: disulfide 4-9 (inferred); not fully specified (C-terminus); printed as YHACYQaGCWIW
notes: cyclic, disulfide; also called YHACYQaGCWIW
B12: SEQ ID NO 160 (peptide)
peptide: YHACYQAGC[dW]IW
modifications: disulfide 4-9 (inferred); not fully specified (C-terminus); printed as YHACYQAGCwIW
notes: cyclic, disulfide
B13: SEQ ID NO 161 (peptide)
peptide: YHACYQAGCW[dI]W
modifications: disulfide 4-9 (inferred); not fully specified (C-terminus); printed as YHACYQAGCWiW
notes: cyclic, disulfide

Columns and labels:
[1] = target: T1, human collagen type I, acid soluble, extracted from placenta (Sigma C7774) (human, UniProt P02452 162-1218; P08123 80-1119); test: dried collagen assay
T1 construct: tissue extract, gelled and dried in wells; also called dried human collagen; h-Collagen
T1 sequence (P02452 162-1218 limits assumed, chain 1 of 2): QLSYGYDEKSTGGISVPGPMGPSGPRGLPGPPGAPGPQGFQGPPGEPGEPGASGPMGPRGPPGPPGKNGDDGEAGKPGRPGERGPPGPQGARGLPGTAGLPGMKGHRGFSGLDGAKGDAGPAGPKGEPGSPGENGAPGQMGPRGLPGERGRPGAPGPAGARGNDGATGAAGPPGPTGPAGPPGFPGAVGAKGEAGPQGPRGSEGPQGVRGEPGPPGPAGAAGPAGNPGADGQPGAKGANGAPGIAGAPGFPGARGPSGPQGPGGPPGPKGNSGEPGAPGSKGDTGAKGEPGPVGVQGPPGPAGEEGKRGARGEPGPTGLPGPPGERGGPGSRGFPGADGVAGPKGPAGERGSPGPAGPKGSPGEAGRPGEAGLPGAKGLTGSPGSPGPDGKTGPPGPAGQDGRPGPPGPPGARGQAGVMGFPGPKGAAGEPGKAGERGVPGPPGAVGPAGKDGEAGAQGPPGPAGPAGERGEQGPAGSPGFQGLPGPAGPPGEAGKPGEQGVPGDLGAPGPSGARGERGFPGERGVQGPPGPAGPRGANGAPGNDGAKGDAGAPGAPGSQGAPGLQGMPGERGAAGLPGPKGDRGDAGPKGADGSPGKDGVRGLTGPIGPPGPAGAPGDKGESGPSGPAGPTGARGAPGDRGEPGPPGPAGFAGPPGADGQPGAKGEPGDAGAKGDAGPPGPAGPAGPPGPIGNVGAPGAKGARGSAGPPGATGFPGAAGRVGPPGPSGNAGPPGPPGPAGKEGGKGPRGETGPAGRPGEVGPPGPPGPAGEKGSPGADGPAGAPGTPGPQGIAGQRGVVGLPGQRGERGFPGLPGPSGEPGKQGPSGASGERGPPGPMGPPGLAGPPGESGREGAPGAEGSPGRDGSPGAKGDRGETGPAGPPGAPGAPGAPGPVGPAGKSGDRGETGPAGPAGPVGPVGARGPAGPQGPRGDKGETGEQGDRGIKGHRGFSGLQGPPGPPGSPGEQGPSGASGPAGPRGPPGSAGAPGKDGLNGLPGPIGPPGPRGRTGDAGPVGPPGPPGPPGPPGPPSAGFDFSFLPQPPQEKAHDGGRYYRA
T1 sequence (P08123 80-1119 limits assumed, chain 2 of 2): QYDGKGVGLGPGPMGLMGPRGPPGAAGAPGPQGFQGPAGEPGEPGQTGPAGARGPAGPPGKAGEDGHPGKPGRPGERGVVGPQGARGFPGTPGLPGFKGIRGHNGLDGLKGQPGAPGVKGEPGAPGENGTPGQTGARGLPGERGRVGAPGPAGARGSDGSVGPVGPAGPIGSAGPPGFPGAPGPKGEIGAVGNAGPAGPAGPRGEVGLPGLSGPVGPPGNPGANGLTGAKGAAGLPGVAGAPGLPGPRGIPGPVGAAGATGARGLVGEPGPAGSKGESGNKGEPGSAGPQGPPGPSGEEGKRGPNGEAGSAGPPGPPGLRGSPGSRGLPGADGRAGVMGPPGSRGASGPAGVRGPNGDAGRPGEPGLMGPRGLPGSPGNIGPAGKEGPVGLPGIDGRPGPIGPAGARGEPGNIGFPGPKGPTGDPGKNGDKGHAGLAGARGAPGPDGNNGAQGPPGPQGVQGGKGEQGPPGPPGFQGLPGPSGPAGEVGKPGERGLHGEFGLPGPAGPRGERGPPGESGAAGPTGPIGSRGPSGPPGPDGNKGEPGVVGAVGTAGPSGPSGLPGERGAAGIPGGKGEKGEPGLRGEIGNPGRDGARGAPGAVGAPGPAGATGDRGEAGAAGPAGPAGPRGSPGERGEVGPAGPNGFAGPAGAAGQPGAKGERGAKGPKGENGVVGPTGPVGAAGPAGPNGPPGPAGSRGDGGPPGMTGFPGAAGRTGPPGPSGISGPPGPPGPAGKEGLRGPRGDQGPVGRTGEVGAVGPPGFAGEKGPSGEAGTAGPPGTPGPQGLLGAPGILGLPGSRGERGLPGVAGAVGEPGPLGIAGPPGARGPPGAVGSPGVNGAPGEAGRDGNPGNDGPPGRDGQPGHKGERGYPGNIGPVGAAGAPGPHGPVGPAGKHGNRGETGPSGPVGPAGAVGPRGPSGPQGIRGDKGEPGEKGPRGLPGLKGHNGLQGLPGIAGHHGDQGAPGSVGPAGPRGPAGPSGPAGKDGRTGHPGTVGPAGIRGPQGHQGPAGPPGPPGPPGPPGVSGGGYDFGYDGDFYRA
Method: (§1) An additional 90 μL is reserved in a HPLC glass vial as a measure of the total concentration.

[2] = target: T2, rat collagen, acid soluble, type I, rat tail (Upstate 08-115) (rat, UniProt P02454 152-1207; P02466 86-1125); test: dried collagen assay
T2 construct: tissue extract, gelled and dried in wells; also called dried rat collagen
T2 sequence (P02454 152-1207, chain 1 of 2): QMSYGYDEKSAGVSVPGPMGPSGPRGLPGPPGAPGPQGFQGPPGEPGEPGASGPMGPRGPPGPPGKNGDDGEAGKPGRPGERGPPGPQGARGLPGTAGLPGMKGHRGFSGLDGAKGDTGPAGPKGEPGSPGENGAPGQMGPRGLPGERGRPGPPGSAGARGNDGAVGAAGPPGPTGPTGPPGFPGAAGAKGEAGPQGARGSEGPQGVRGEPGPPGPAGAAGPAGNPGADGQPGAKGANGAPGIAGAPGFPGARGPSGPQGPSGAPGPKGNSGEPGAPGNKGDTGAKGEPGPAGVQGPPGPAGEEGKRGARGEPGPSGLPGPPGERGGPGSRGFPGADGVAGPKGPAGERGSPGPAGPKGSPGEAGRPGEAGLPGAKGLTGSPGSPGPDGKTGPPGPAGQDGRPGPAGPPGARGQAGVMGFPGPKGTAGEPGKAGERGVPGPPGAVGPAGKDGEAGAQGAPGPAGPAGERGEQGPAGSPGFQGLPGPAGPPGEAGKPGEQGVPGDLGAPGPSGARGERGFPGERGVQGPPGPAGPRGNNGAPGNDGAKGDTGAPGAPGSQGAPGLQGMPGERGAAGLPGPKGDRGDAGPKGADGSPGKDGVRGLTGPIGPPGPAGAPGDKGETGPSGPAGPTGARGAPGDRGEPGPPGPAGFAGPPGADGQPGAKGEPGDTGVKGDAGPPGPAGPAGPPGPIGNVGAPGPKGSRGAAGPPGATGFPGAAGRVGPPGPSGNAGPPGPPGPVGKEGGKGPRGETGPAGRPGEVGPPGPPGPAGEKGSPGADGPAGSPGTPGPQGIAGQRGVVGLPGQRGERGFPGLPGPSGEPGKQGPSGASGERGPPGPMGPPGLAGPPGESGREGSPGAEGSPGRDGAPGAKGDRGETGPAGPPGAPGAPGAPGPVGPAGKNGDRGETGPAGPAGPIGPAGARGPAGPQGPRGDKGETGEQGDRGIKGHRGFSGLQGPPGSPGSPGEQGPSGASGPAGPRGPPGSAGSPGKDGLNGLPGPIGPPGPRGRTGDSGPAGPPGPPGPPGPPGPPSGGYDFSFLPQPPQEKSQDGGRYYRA
T2 sequence (P02466 86-1125, chain 2 of 2): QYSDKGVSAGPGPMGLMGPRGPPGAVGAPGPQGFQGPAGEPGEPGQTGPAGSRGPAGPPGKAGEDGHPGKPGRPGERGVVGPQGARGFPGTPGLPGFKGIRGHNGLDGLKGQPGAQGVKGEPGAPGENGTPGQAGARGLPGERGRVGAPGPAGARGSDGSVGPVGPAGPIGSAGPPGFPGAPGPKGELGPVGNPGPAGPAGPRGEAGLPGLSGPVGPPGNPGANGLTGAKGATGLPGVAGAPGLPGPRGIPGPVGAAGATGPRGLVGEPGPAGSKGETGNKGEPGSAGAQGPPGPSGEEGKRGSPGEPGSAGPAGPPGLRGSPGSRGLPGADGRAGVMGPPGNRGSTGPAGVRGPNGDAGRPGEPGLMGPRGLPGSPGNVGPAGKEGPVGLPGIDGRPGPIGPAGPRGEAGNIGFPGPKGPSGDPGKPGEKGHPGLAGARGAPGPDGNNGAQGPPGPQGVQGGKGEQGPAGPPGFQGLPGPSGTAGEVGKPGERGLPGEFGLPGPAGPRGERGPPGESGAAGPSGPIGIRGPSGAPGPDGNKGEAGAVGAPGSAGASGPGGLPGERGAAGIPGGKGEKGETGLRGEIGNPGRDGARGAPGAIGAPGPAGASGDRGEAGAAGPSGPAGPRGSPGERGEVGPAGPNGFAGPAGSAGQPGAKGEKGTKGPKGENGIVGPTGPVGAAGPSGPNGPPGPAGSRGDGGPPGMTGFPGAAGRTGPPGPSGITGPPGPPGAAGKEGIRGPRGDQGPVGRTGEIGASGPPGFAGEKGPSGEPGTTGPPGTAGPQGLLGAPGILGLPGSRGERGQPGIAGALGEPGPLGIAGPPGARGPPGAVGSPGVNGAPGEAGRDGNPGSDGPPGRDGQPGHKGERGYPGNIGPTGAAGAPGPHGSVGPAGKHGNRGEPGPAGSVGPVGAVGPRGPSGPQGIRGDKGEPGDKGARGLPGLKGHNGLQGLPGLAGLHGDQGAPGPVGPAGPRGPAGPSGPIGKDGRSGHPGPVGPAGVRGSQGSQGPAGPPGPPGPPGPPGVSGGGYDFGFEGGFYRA
Method: as §1

Row | Binder | % bound [1] [%] | % bound [2] [%]
1 | PWTCSGDEYAWHCNY[dE] (disulfide 4-13 (inferred), cyclic, disulfide) [SEQ ID NO 121] | 57 | 72
2 | GQWTCSGDEYAWHCNY[dE] (disulfide 5-14 (inferred), cyclic, disulfide) [SEQ ID NO 126] | 68 | 73
3 | GQWTCSGDEYTWSCNYE (disulfide 5-14 (inferred), cyclic, disulfide) [SEQ ID NO 127] | 80 | 73
4 | GQATCSGDEYTWHCNYE (disulfide 5-14 (inferred), cyclic, disulfide) [SEQ ID NO 139] | 1 | 0
5 | GQWTCAGDEYTWHCNYE (disulfide 5-14 (inferred), cyclic, disulfide) [SEQ ID NO 141] | 87 | 83
6 | GQWTCSGAEYTWHCNYE (disulfide 5-14 (inferred), cyclic, disulfide) [SEQ ID NO 143] | 66 | 51
7 | GQWTCSGDAYTWHCNYE (disulfide 5-14 (inferred); not fully specified (C-terminus), cyclic, disulfide) [SEQ ID NO 144] | 87 | 77
8 | GQWTCSGDEATWHCNYE (disulfide 5-14 (inferred); not fully specified (C-terminus), cyclic, disulfide) [SEQ ID NO 145] | 68 | 50
9 | QWTCSGDEYAWHCNYE (disulfide 4-13 (inferred); not fully specified (N-terminus, C-terminus), cyclic, disulfide) [SEQ ID NO 146] | 82 | 77
10 | GQWTCSGDEYTWACNYE (disulfide 5-14 (inferred); not fully specified (C-terminus), cyclic, disulfide) [SEQ ID NO 148] | 66 | 73
11 | GQWTCSGDEYTWHCNAE (disulfide 5-14 (inferred); not fully specified (C-terminus), cyclic, disulfide) [SEQ ID NO 150] | 16 | 9
12 | GQWTCSGDEYTWHCNYA (disulfide 5-14 (inferred); not fully specified (C-terminus), cyclic, disulfide) [SEQ ID NO 151] | 87 | 81
13 | DWTCS[dY]DEYTWHCNYE (disulfide 4-13 (inferred), cyclic, disulfide) [SEQ ID NO 182] | 89 | 86
14 | DWTCSGDHLTWHCNYG (disulfide 4-13 (inferred), cyclic, disulfide) [SEQ ID NO 116] | 58 | 35
15 | DWTCSGDHLTWKCNYG (disulfide 4-13 (inferred), cyclic, disulfide) [SEQ ID NO 117] | 38 | 24
16 | DWTCSGNHLTWYCNYG (disulfide 4-13 (inferred), cyclic, disulfide) [SEQ ID NO 118] | 68 | 67
17 | GQWTCSGDEYTWHCNY (disulfide 5-14 (inferred), cyclic, disulfide) [SEQ ID NO 123] | 59 | 72
18 | GQWTCSGDEY[dA]WHCNA[dE] (disulfide 5-14 (inferred), cyclic, disulfide) [SEQ ID NO 124] | 24 | 17
19 | GQWTCSGDEYSWHCNY[dE] (disulfide 5-14 (inferred), cyclic, disulfide) [SEQ ID NO 125] | 85 | 86
20 | GQWTCSGDAYTWHCAYE (disulfide 5-14 (inferred), cyclic, disulfide) [SEQ ID NO 128] | 80 | 72

Row | Binder | % bound [1] [%] | % bound [2] [%]
21 | GAWTCSGDEYTWHCNYE (disulfide 5-14 (inferred), cyclic, disulfide) [SEQ ID NO 129] | 87 | 84
22 | GQWACSGDEYTWHCNYE (disulfide 5-14 (inferred), cyclic, disulfide) [SEQ ID NO 140] | 84 | 77
23 | GQWTCSGDEYTWHCAYE (disulfide 5-14 (inferred); not fully specified (C-terminus), cyclic, disulfide) [SEQ ID NO 149] | 82 | 82
24 | B1 | 46 | 31
25 | B2 | 49 | 35
26 | B3 | 9 | 8
27 | B4 | 30 | 27
28 | B5 | 90 | 87
29 | DWTCS[dA]DEYTWHCNYE (disulfide 4-13 (inferred), cyclic, disulfide) [SEQ ID NO 179] | 81 | 75
30 | DWTCS[dS]DEYTWHCNYE (disulfide 4-13 (inferred), cyclic, disulfide) [SEQ ID NO 180] | 81 | 72
31 | DWTCS[dR]DEYTWHCNYE (disulfide 4-13 (inferred), cyclic, disulfide) [SEQ ID NO 181] | 87 | 86
32 | DWTCS[dL]DEYTWHCNYE (disulfide 4-13 (inferred), cyclic, disulfide) [SEQ ID NO 183] | 73 | 63
33 | B6 | 0 | 0
34 | B7 | 24 | 21
35 | B8 | 15 | 11
36 | B9 | 38 | 48
37 | B10 | 37 | 35
38 | B11 | 56 | 66
39 | B12 | 20 | 12
40 | B13 | 8 | 10
